Test results reported in the DeepSol protein solubility set.

Test: soluble on expression in E. coli; label from the status in PepcDB or PDB records

Soluble on expression in E. coli, not soluble:
MGSDKIHHHHHHMLGTLKKMRVQLDDAQQVQYQLVVGDELLTLNPLIGKQLTLTHTGNIFCCNCGKKSKKSYSQGHCFVCMQKLASCDMCIMKPETCHYDQGTCREPEWAQSHCFVPHYVYLANTSGVKVGITRHTQLPTRWIDQGATQGLPIFKVSTRQLSGLVEVELAKLVNDKTHWQAMLKGHADDIDLNVKAAELIPQIEAKLHEIGMQKGDYSIERLDETIQPIHYPIDTFPKKITSHNFDKNGVVSGILQGIKGQYLMFDTGVINIRKFSSYEISVEHD
MGSDKIHHHHHHMLIEIPNVFSKQEVNQLREQLDARTWIDGNQTSGMMASTRKRNQQLDKDDPVALQIGELIMARLLAHPLFVSAALPLQFYPPLFNRYQGGDTFGYHIDNAIRSTSDGMVRTDLSATLFLSELNAYEGGELVIQDTYGQQSIKLAAGSLVLYPSTSLHQVTPVTSGERTSAFMWLQSMVRDEGQRRLLFQLDQSIQTLTAQQAAEQELFNLTGVYHNLLRRWSEL
MGSDKIHHHHHHMLIFQCHGDRCLSSNLQEHFTDLKKLVNGKSLLMGEKNVQKRLIRLGQILRVFLDKDRVSSIWLSRNFQITPRTIQRDLAALKESGFPIHEIQKGVYRLGKDLIKNLEVFDETELALVITLRNVVGQLGRPFQKAADGLFNSLYDAASSMPVYVRMDESIPLDSSLLNRIVKSIRLKKIAGFYYKSGKPHQVNMEPYRVVHFGGFWYLVGKDTGDSVIKRYALDRISDFKMARTPFRKIPENLDSAIQGSANIWFSTDQNLVVKISVDASSSGYFKRRKVFPTQEITEEREDGSLIVTFRVGRYEAIQDILKSWLPHITILEPAEFRDAFLADMKKWVQRQEQVGS
MGSDKIHHHHHHMLIFVMKPRSNPVTGGFHSDKFANWNTMPLETLPVISLAGEPDALSRELGESFRTFGFAMVRDHGIDPDLIARAWDLTAQFFALPEAEKRSYYLDGLAGARGYTPFGTEIAKGARLHDLKEFWHVGRDLPAGHPLSASMPPNVWPARPEGFRQTFETLYGEFDKVGARILSRIAVWLGLDENWFDPAIEDGNSVMRLLHYPPVPDAESGAIRAGAHEDINLITLLLGAEEAGLELLSRQGEWIGVSPPEGALVVNIGDMLQRLTNHVLPSTTHRVRNPEGERARFSRYSMPFFLHLRSDFPFVTLPQCISDENPDRYPVSITADDYLQERLREIGLRK
MGSDKIHHHHHHMLIHQQYTRHGPDYRFGEQMTFLDVKQTFGFSHVRVGRWVTREESLIAANLVFDSLADLAFILHLPPLTLGLRQSLSLAFGHGGQKGVQAHYAPAARELALAKNAGAGALAHEFWHAFDHYVAPKAFQRVTGRFTCASDLWLADLPLIDHPLNQRLVEIFRVTLLSEDNLAPSDYVRRAIALDKRYGSQYFAKPTEMMARAFEACIESYQGIQNPYLVSGTRYSSLAKEGAYPDEPHRQRIFKALIAYFEPLGIALGKAG
MGSDKIHHHHHHMLKELHLQQVGPAAHFDVAFADRLNIFTGDNGLGKSFLLDIAWWVMTTNWAEQPAYPQRVKGENPQITAVVSNKKNIREYQSQFDFSEQQWRNLQMPPLLKEVVIYVRVDGSFSIFDPARQRDIAYNFNPNTLWNGLKSKDKVICNGLIQDWVTWQNQPNKYPFELFSNVIKKLAPHPSEWIEVGETTRVSIEDVRDIPTVNLPYGNVPVTQTSAGMKRILGLAYLLVWTWYEHKKASELRQQKPVNQIVLLIDEIESHLHPRWQRVILPAILSVVTELQPRMKIQALVTTHSPLILASLEPNFHEQEDKLFLFKLQDSEVSLDEVPWSKQGDIVGWLTSDIFGLKQARSKEAEIAIEAAEAWMRDDDMNTFPENLRISTQIHQELQRVLPGHDPFWPRWIVTTEKRNSGLSGV
MGSDKIHHHHHHMLKFLKDSKVDFTVRCCGVSSIPCALFFLTRSTNRTYSILVKEWKNIEKLLDPFFTKGIDQLSMVDALRILMRIGDTLNGVRNHERLYRYIDSLFPAQKIPGGLEIWAFDLFEGKEVVFKEGDDLRRALKISLSFPILYRPYEDRYVPITWITGVPEGELTVLFDVKKEKNPPRNALEYLFLSTTARTKHLERERIKKAKSLRIACTSLSPVSTTRRAYEEFSRFFEEVVL
